{"source": "paper doi:10.1101/2025.05.13.653872", "about": "“A novel non-catalytic function of PA2803-encoded PcrP contributes to polymyxin B resistance in P. aeruginosa and redefines the functional role of the PA2803 subfamily” (bioRxiv, 2025)", "molecular_target": "the molecule itself", "assay": "cross-linking; 50 μM purified PcrP with 0.02, 0.05, 0.1 and 0.2% glutaraldehyde for 2 min in 50 mM NaCl, 1% glycerol, 20 mM HEPES pH 7.8; stopped with Tris-HCl pH 8.0; 12% SDS-PAGE, Coomassie", "data": [{"protein": "6XHis-PcrP (PA2803), recombinant, purified (natural protein, PcrP (PA2803), P. aeruginosa PAO1; No tag cleavage step is described; The reverse primer carries the stop codon, so the His tag of the vector should be N-terminal; also called 6XHis-PA2803; pAAK001; source: E. coli BL21(DE3), purified (Ni-NTA)) MPSSDQLPRFTALLFGLSGGLVDFGARTLSLALLRSHPHSPAEHLRDASLLPFAEAQSFLLRRKPNKSERQRLEQALDEAAGEQAEAIAGAVALLESLDEQRIPYAWQDELPESVCQRLAAPLGRANALIPLAGARPWPAPDGCWQALARLGIERLDGCVLVSAQPRQLQAGLNAGLWTIGLAASGPSCGLSPADWDALGHTERDRLRADATLELYRLGVHSVIDHLGELQPCLHDLAVRRLKGEKP", "values": [{"measurement": "stoichiometry N", "value": 2}]}]}
